Patent publication US20240270841A1

Target: LILRB1 expressed on the surface of human natural killer cell KHYG-1 (human) (UniProt Q8NHL6)
Experiment: flow cytometry (iQue) on KHYG-1 NK cells, antibody 50 ug/mL

Sequence of LILRB1 expressed on the surface of human natural killer cell KHYG-1 (human) (Q8NHL6 24-650): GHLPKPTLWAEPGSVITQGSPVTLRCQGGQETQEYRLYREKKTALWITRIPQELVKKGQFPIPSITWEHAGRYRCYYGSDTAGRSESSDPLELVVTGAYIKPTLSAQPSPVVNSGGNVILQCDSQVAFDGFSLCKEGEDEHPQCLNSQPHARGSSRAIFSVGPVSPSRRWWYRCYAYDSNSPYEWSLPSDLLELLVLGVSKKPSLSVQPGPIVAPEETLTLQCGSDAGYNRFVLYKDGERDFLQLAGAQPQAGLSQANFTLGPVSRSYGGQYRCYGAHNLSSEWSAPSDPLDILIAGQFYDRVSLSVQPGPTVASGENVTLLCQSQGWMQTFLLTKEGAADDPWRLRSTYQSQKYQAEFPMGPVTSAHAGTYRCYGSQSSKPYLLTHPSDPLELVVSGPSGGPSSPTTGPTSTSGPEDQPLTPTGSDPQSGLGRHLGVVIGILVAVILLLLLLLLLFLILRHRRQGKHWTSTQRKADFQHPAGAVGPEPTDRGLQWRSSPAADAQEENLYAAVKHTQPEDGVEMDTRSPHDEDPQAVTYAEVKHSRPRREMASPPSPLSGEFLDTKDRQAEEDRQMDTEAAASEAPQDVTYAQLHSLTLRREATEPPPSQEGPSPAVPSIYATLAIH

In the case of “human IgG4 isotype control antibody (Biolegend)”, the % of population 2 is reported as 2.95% and the Mean Fluorescence Intensity is reported as 143000.
